From patent EP4421085A1 come the findings set out here.

Assay [1] deals with recombinant human alpha synuclein A30P (human) (UniProt P37840). The experiment in a line: cell-based or functional assay.
Assay [2] addresses recombinant human alpha synuclein A53T (human) (UniProt P37840). Kind of assay: cell-based or functional assay.
For assay [3], the target named is recombinant human alpha synuclein E46K (human) (UniProt P37840). The experiment in a line: cell-based or functional assay.
In assay [4] the target is recombinant human wild type alpha synuclein (human) (UniProt P37840). Kind of assay: cell-based or functional assay.
The target of assay [5] is biotinylated alpha synuclein (aSN) 1-140 (UniProt P37840). The experiment in a line: SPR (Biacore 8K), biotinylated aSN on SA chip, binder as analyte, 25 °C. (In SPR one partner is held on a chip, and binding of the other changes the refractive index at the surface.)
Assay [6] has the same target. Kind of assay: SPR (Biacore 8K), biotinylated aSN on SA chip, binder as analyte, 37 °C.

The term Kd denotes the constant that tells how readily two partners part at equilibrium. A low value points to tighter binding. A word on the koff: it is the first-order rate constant of dissociation. Higher therefore signals fast dissociation. In general, kon refers to the second-order rate constant of association. The low end stands for slower complex formation, the high end for faster complex formation. Consider AS69 (designed binder), for which the Ranking of the binders in figure 5 (ThT aggregation assay) was found to be 5 rank in assay [1], 6 rank in assay [2], 4 rank in assay [3] and 3 rank in assay [4]. The figures for the Kd in assay [5] and in assay [6] were 0.0722 µM and 0.0649 µM, respectively. Further, the koff worked out at 0.000114 s⁻¹ in assay [5] and 0.000252 s⁻¹ in assay [6]. Besides, the kon was determined as 1580 M⁻¹ s⁻¹ in assay [5] and 3880 M⁻¹ s⁻¹ in assay [6].
